According to the nanobody polyreactivity screen of Harvey et al. (2022):

Assay: yeast display, Sf9 membrane polyspecificity reagent, FACS + sequencing; frameworks hold sequencing errors
Summary of the method: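 Galactose induction of a Saccharomyces cerevisiae BJ5465 synthetic nanobody display library ran 36–48 hours. The cells were then stained for 1 hour at 4 °C with 10% biotinylated, detergent-solubilized Sf9 membrane reagent, pulled down on streptavidin microbeads and FACS-sorted into low and high (top ~1%) gates on expression and reagent-binding fluorescence. Labels for polyreactivity follow the gate of origin.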

Q: Which “polyreactivity (PSR sort gate)” value does the source give for “QVQLVESGGGLVQAGGSLRLSCAASGIFTRYAMGWYRQAPGKERELVAAISRGGGSTYYADSVKGRFTISRDNAKNTVYLQMNSLKPEDTAVYYCNTYKRPRSPGPKFYYWGQGTQVTVSS” here?
A: high polyreactivity

Q: Which “polyreactivity (PSR sort gate)” value does the source give for “QVQLVESGGGLVQAGGSLRLSFAASGRTFPDNAMGWYRQAPGTQRELVATISWSGGSTYYADSVKGRFTISRDNAKNTVYLQMNSLKPEDTAVYYCARDSLQVFYPYASDDYWGQGTQVTVSS” here?
A: low polyreactivity

Q: Which “polyreactivity (PSR sort gate)” value does the source give for “QVQLVESGGGLVQAGGSLRLSCAASGRIFDRNAMGWYRPAPGKERELVAAISRRGGSTYYADSVKGRITISRDNAKNTVYLQMNSLKPEDTAVYYCAARFLYRSVKMDYWGQGTQVTVSS” here?
A: high polyreactivity

Q: With “QVQLVESGGGLVQAGGSLRLSCAASGSIFKYNTMGWYREAPGKESELVAAINGGGSTYYADSVKGRFTISRDNAKNTVYVTMNCLNPEDTAVYYCAKVQRTRGWSLDYWGHGTQVTVSS” as the sequence, how does the “polyreactivity (PSR sort gate)” value read?
A: high polyreactivity

Q: For “QVQLVESGGGLVQAGGSLRLSCAASGNIFDRYAMGWYRQAPGKERELVAGITWSGGSTYYADSVKGRFTISRDNAKNTVYLQMNSLKPEDTAVYYCGEANYYWGHGTQVTVSS”, which “polyreactivity (PSR sort gate)” value is on record?
A: low polyreactivity

Q: For “QVQLVESGGGLVQAGGSLRLSCAASGSIIYNYAMGWYRQAPGKERELVAAINRSGGITYYADSVKGRFTISRDNAKNPVYLQMNSLKPEDTAVYYCAADRSFGHHYWYTGKRYDYWGQGTQVTVST”, which “polyreactivity (PSR sort gate)” value is on record?
A: low polyreactivity

Q: With “QVQLVESGGGLVQAGGSLRLICAASGFTFNWYAMGWYRQAPGKERELVATISSTGSTYYADSVKGRFTISRDNAKNTVYLQMNSQKPEDTGVYYCAVRRPPYSYYWDFDSWGQGTPVTVSS” as the sequence, how does the “polyreactivity (PSR sort gate)” value read?
A: high polyreactivity

Q: With “QVQLVESGGGLVQAGCSLRLSCAASGFTFLNNAMGWSRQAPGKEREMVAAISQSGTSTYYADSVKGRFTISRDNAKNTVYLQMNSLKPEDTAVYYCAAEDTYPHDYSGGLEYDYWGQGTQVTVSS” as the sequence, how does the “polyreactivity (PSR sort gate)” value read?
A: low polyreactivity

Q: For “QVQLVESGGGLVQAGGSLRLSCAASGRTFYYYAMGWYRQAPGKERELVAAISSSTGRTYYADSVKGRFTISRDNAKNTVYLQMNSLKPEDTAVYYCAKYRVFGYQFDYWGQGTQVTVSS”, which “polyreactivity (PSR sort gate)” value is on record?
A: high polyreactivity

Q: For “QVQLVESGGCLVQAGGSLRLSCAASGFTLTGNAMGWYRQAPGKERELVADISNSGGTTNYADSVKGRFTISRDNAKNTVYLQMNSLKPDDSAVYYCAADVSYRNIGLEYWGQGTQVTVSS”, which “polyreactivity (PSR sort gate)” value is on record?
A: high polyreactivity

Q: For “QVQLVESGGGLVQAGGSLRLSCAASGSIFIDYVMGWYRQAPGTERELVAAISKRGGSTYYADSVKGRFTISRDNAKNTVYLQMNSLKPEDTAVYYCNAYRIGVYTAKDGYWGQGTQVTVSS”, which “polyreactivity (PSR sort gate)” value is on record?
A: high polyreactivity

Q: With “QVQLVESGGGLVQAGGSLRLSCAASGRIFGYYAMGWYRQAPGKERELVAAITRNGGSTYYADSVKGRFTISRDNAKNTVYLQMNSLKPEDTAVYYCAATKGGGRGYWGQGTQLTVSS” as the sequence, how does the “polyreactivity (PSR sort gate)” value read?
A: high polyreactivity

Q: With “QVQLVESVGGLVQAGGSLRLSCAASGSTFGYNAMGWYRHAPGKEMELVAAITRSSSRTYYADYVKGRFTISRDNAKNTVYLQMNSLKPEDTAVYYCAKVRYVVGSIFNYSYNYWGQGTQVTVSS” as the sequence, how does the “polyreactivity (PSR sort gate)” value read?
A: high polyreactivity

Q: For “QVQLVESGGALVQAGGSIRLSCAASGSTFAYYAMGWYRQATGKERELVAAINWRTYYADSVKGRFTISRDNAKNTVYLQMNSLKPEDSAVYYCAAGYYRNKFYYWGQGTQVTVSS”, which “polyreactivity (PSR sort gate)” value is on record?
A: high polyreactivity

Q: For “QVQLVESGGGLVQAGGSLRLSCAASGSIFIHNAMGWYRQAPGKERELVPGITTGGSTYYADSVKGRFTISRDNAKNTVYLQMNSLKPEDTAVYYCATARSYLTYSYHYDYWGQGTQVTVSS”, which “polyreactivity (PSR sort gate)” value is on record?
A: low polyreactivity

Q: Which “polyreactivity (PSR sort gate)” value does the source give for “QVQLVESGGGLDQAGGSLRLSCAASGLIFSQYTMGWYRQAPGKERELVASITWRGGSTYADSVKGRFTISRDNAKNTVYLQMNSLKPEDTAVYYCAADYKPSYYLRQSYGYWGQGTQVTVSS” here?
A: low polyreactivity

Q: With “QVQLVESGGGLVQAGGSLRLSCAASGRIFWVYAMGWYRQAPGKERELVAAISLSGGRTYYADSVKGRFTISRDNAKNTVYLEMNSLKPEDTAVYYCNAVYPKRGGGRIVDYWGQGTQVTVSS” as the sequence, how does the “polyreactivity (PSR sort gate)” value read?
A: high polyreactivity

Q: For “QVQLVESGGGLVQAGGSLRLSCAASGRTFDSNAMGWYRQAPGKERELVAGISESGGSTYYADSVKGRFTISRDNAKNTVYLQMNSLKPEDTAVYYCAYSGITVYYHRAVDFIVSYDYWGQGTQVTVSS”, which “polyreactivity (PSR sort gate)” value is on record?
A: low polyreactivity

Q: For “QVQLVESGGGLVQAGGSLRLSCAASASILGSNAMGWYSQAPGKEREFVAAITWTGGSTYYADSVKGRFTISRDNAKNTVYLQMNSLKPEDSAVYYWAKDVKYVKMDDWGQGTQVTVSS”, which “polyreactivity (PSR sort gate)” value is on record?
A: low polyreactivity

Q: For “QVHLVESGGGLVQAGGSLRLICAASGSIFSAYALGWYRQAPGKERELVAAITWRGGSTYYADSVKGRFTISRDNAKNTVYLQMNSLKPEDTAVYYCAKYYYYLRSARKYDYWGQGTQVTVSS”, which “polyreactivity (PSR sort gate)” value is on record?
A: high polyreactivity

Q: With “QVQLVESGGGLVQAGGSLRLSCAASGSILIVYAMGWYRQAPGKERELVAAITRGGRTNYADSVKGRFTISRDNAKNTVYLQMNSLKPEDTAVYYCAARVLPANVKPYNYWGQGTQVTVSS” as the sequence, how does the “polyreactivity (PSR sort gate)” value read?
A: high polyreactivity

Q: Which “polyreactivity (PSR sort gate)” value does the source give for “QVQLVESGGGLVQAGGSLRLSSAASGRTIDGNAMVWYRQAPGKEREWVATITRGGSTYYADSVKGRFTISRDNAKNTVYLQMNSLKPEDTSVYYCAARYYGRSQHHFDYWGQGTQVTVSS” here?
A: high polyreactivity

Q: With “QVQLVESGGGLVQAGGSLRLSCAASGLIFEPYVMGWYRQAPGKERELVASITWSAGSTYYADSVKGRFTISRDNAKNTVYLQMNSLKPDDTAVYYCAARHGYGWGFSGVPAQGYEYWGQGTQVTVSS” as the sequence, how does the “polyreactivity (PSR sort gate)” value read?
A: low polyreactivity

Q: For “QVQLVESGGGLVQAGGSLRLSCAASGRIFYYNSMGWYRQAPGKERELVASITGSGGSTYYADSVKGRFTISRDNAKNTVYLQMNSLKPEDTAVYYFAKREYLYPFYYVAKYDYWGQGTQVTVSS”, which “polyreactivity (PSR sort gate)” value is on record?
A: low polyreactivity

Q: With “QVQLVESGGGLVQAGGSLRLSCAASGLSSLRMLWDGIDRRLGKKGSWLPLITSGGDSTNYADSVKGRFTISRDNAKNTVYLQMNSLKPEDTAVYYCAADLDYPYGYWGQGTQVTVSS” as the sequence, how does the “polyreactivity (PSR sort gate)” value read?
A: low polyreactivity

Q: Which “polyreactivity (PSR sort gate)” value does the source give for “QVQLVESGGGLVQAGGSLRLSCDASGSIFYSKAMGWYRQAHGKERELVAAITVGGGRTYYADSVKGRFTISRDNAKNTVYLQMNSLNPEDTAVYYCAADSHASTYDYWGQGTQVTVSS” here?
A: low polyreactivity

Q: With “QVQLVESGGGLVQAGRSLRLSCAASGITFIYYAMGWYRQAPGKESELVAAISKSGGRTYYADSVKGRFTISRDNAKNTVYLQMNSLKPEDTAVYYCNKLVGDDTDLYDYWGQGTQVTVSS” as the sequence, how does the “polyreactivity (PSR sort gate)” value read?
A: high polyreactivity

Q: For “QVQLVESGGGLVQAGGSLRLSCAASGLILSDYAMGWYRQAPGKERELVATITSVGTTKYADSVKGRFTISRDNAKNTVYLQMNSLKPEDTAVYYCAVEWYQGTTYSISYLYDYWGQGTQVTVSS”, which “polyreactivity (PSR sort gate)” value is on record?
A: low polyreactivity

Q: With “QVQLVESGGGLVQAGGSLRLSCAASGSIFNLNAMGWYIQAPGKERELVASISSDRSTYYADSVKGRFTISRDNAKNTVYLQMNSLKQEDTAVYYCNADSQLAFKQLSFDYWGQGTQVTVSS” as the sequence, how does the “polyreactivity (PSR sort gate)” value read?
A: low polyreactivity

Q: For “QDQLVESGGGLVQAGGSLRLSCAASGRTFTTNDMGWYRQAPGKEWELVAGISWSGGSTFYADSVKGRFTISRDNAKNTVYLQMNSLKPEDTAVYSCATSARSYQSAYGHYTWYDYWGQGTQVTVSS”, which “polyreactivity (PSR sort gate)” value is on record?
A: low polyreactivity

Q: With “QVQLVESGGGLVQAGGSLRLSCAASGRTFPINTMGWYRQAPGKEREFVAAITLGGRTYYADSVKGRFTISRDNAKNTVYLQMNSLKPEDTAVYYCNARTYVRRPLGYWGQGTQVTVSS” as the sequence, how does the “polyreactivity (PSR sort gate)” value read?
A: high polyreactivity
